Source: patent US12358960B2, “Selective targeting of ubiquitin- and ubiquitin-like E1-activating enzymes by structurally-stabilized peptides” (Dana-Farber Cancer Institute, Inc., priority 2019, dated 2025)
“Also recorded” adds a separate entry of the source. Bridge positions count the residues as written; N and C are the ends. Square brackets hold non-standard residues; d marks the D form. Ends that are not written are not given here. * marks the point of attachment. Biotin = O=C1N[C@H]2[C@H](CS[C@H]2CCCCC(=O)*)N1; R8 = C=CCCCCCC[C@@](C)(N)C(=O)O; S5 = C=CCCC[C@](C)(N)C(=O)O; Nle = CCCC[C@H](N)C(=O)O; Dab = NCC[C@H](N)C(=O)O; Acryloyl = C=CC(=O)*

Experiments:
[1] = target: T1, Human E1 activating enzyme UBA1 (Homo sapiens, UniProt P22314); test: In vitro enzyme inhibition assay: E1-mediated ubiquitin thioester transfer to E2 (band shift, silver stain); assay type: biochemical; conditions: for inhibition of E1-mediated ubiquitin transfer to E2 (conversion of E2 to E2~ubiquitin): 100 μM peptide, staple scan; for inhibition of E1-mediated thioester transfer to E2 by mutant / additional stapled peptides: SAH-UBE2A-11 variants and controls, Examples 4, 7, 13; for inhibition of E1-mediated thioester transfer to E2 by warhead-bearing stapled peptides: Example 8
T1 sequence (P22314 1-1058): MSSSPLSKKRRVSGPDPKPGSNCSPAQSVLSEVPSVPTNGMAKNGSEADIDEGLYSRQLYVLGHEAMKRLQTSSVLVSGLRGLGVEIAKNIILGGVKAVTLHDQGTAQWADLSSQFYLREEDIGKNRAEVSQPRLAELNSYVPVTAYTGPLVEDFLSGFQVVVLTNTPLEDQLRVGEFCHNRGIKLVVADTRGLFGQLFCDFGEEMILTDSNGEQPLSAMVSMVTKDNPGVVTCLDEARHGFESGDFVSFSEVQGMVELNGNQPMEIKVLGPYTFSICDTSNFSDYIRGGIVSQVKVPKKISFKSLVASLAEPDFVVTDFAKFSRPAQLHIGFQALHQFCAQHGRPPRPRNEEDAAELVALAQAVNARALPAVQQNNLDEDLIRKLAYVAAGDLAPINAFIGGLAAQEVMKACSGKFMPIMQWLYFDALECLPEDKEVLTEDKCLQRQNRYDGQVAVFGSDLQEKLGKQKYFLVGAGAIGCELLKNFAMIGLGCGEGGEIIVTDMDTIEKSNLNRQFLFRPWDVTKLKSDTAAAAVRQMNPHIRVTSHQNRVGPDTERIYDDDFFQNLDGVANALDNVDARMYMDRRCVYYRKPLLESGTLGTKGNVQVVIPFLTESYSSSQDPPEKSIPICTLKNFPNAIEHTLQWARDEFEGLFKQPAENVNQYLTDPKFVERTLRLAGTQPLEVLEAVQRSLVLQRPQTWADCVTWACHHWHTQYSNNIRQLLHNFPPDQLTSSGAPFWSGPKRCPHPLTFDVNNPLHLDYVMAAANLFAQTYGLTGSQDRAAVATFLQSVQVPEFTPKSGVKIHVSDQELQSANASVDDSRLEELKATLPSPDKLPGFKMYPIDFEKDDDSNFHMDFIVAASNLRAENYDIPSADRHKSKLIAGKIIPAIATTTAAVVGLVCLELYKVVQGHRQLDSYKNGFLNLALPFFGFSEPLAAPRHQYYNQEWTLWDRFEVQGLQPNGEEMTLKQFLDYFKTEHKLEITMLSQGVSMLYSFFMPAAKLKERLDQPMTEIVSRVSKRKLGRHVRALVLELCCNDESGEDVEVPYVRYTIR
Protocol: In vitro Enzyme Inhibition Assays: To assess an E2 hA peptide's inhibition of an E1 enzyme, an in vitro enzyme inhibition assay can be used, for example. The in vitro enzyme inhibition assay measures an E2 hA peptide's ability to inhibit conjugation of ubiquitin to E2 by E1. Briefly, recombinant E1 (e.g., UBA1), recombinant E2 (e.g., UBE2A), ubiquitin, and Mg-ATP are combined in the presence of an E2 hA peptide or vehicle control (e.g., 1% DMSO) for a period of time (e.g., 30 minutes) at room temperature in a buffer containing, e.g., 50 mM NaCl, 50 mM HEPES pH 7.5. Control reaction includes no E1. Reactions are quenched by addition of SDS-containing loading dye and samples are resolved on a gel (e.g., a 4-12% Bis-Tris protein gel) under nonreducing conditions. Proteins on the gel are visualized via, e.g., silver stain. Conjugation of ubiquitin to E2 by E1 is monitored by conversion of free E2 (˜17 kDa) to E2˜ubiquitin conjugate (˜26 kDa).
Control reaction included no E1 enzyme. Reactions were quenched by addition of SDS-containing loading dye and samples were resolved on a 4-12% Bis-Tris protein gel under nonreducing conditions. Proteins were visualized via silver stain. Conjugation of ubiquitin to E2 by E1 was monitored by conversion of free E2 (17 kDa) to E2˜ubiquitin conjugate (26 kDa).
The ability of the peptides to inhibit E1-mediated thioester transfer to E2 was evaluated. Human E1 activating enzyme UBA1 (10 nM), UbcH5b E2 enzyme (150 nM), ubiquitin (1 μM), and Mg-ATP (20 μM) were combined in the presence of stapled peptide at a range of concentrations or vehicle control (1% DMSO) for 45 minutes at room temperature in buffer containing 50 mM NaCl, 50 mM HEPES, 1 mM TCEP pH 7.5. Reactions were quenched by addition of SDS-containing loading dye and samples were resolved on a 4-12% Bis-Tris protein gel under nonreducing conditions. Proteins were visualized via silver stain. Conjugation of ubiquitin to E2 by E1 was monitored by conversion of free E2 (17 kDa) to E2˜ubiquitin conjugate (26 kDa). Inhibition percentage was calculated from densitometry of silver stain images.
Streptavidin-biotin pull-down assays: For recombinant protein pull-downs, 10 pmol recombinant human UBA1 was incubated with 5 nmol C-terminally biotinylated SAH-UBE2A or DMSO vehicle control in a total volume of 1 mL binding buffer (50 mM NaCl, 20 mM HEPES, pH 7.4, 5 mM DTT) for 1.5 hours at 4° C. 30 μL of pre-equilibrated streptavidin agarose beads were then added and incubated for an additional 1.5 hours at 4° C. The beads were pelleted by centrifugation and washed three times with NP-40 buffer (20 mM HEPES, pH 7.4, 50 mM NaCl, 5 mM DTT, 0.5% [v/v] NP-40) before eluting the protein sample from the beads by heating at 70° C. for 10 min in 3×SDS loading buffer. Samples were subjected to electrophoresis and silver staining (Pierce 24612). For pull-down from cellular lysates, 0.75 mg HeLa cell lysate was incubated with 5 nmol C-terminally biotinylated SAH-UBE2A or DMSO vehicle control in a total volume of 1 mL binding buffer (50 mM NaCl, 20 mM HEPES, pH 7.4, 5 mM DTT) containing protease-phosphatase inhibitor cocktail for 2 hours at 4° C. 30 μL of pre-equilibrated streptavidin agarose beads (ThermoFisher 20357) were then added and incubated for an additional 1.5 hours at 4° C. The beads were pelleted by centrifugation and washed three times with NP-40 buffer (20 mM HEPES, pH 7.4, 50 mM NaCl, 5 mM DTT, 0.5% [v/v] NP-40) before eluting the protein sample from the beads by heating at 70° C. for 10 min in 3×SDS loading buffer. Proteins were separated by SDS-PAGE gel electrophoresis and detected by western blot against UBE1 (Abcam ab34711). In vitro Enzyme Inhibition Assays: Recombinant human E1 activating enzyme UBA1 (10 nM), E2 enzyme (150 nM), ubiquitin (1 μM), and Mg-ATP (20 μM) are combined in the presence of peptide or vehicle control (1% DMSO) for 45 minutes at room temperature in buffer containing 50 mM NaCl, 50 mM HEPES pH 7.5. Control reaction includes no E1 enzyme. […]

[2] = Circular dichroism, α-helicity; assay type: physicochemical; conditions: in solution
Protocol: Assays to Determine α-Helicity: Compounds are dissolved in an aqueous solution (e.g., 5 mM potassium phosphate solution at pH 7, or distilled H2O, to concentrations of 25-50 μM). Circular dichroism (CD) spectra are obtained on a spectropolarimeter (e.g., Jasco J-710, Aviv) using standard measurement parameters (e.g., temperature, 20° C.; wavelength, 190-260 nm; step resolution, 0.5 nm; speed, 20 nm/sec; accumulations, 10; response, 1 sec; bandwidth, 1 nm; path length, 0.1 cm). The α-helical content of each peptide is calculated by dividing the mean residue ellipticity by the reported value for a model helical decapeptide (Yang et al., Methods Enzymol. 130:208 (1986)).
Circular Dichroism: Acetylated peptides were dissolved in 10% (vol/vol) acetonitrile in water for circular dichroism analyses, performed on an Aviv Biomedical spectrophotometer, as reported (see Bird et. al., Methods in Enzymol., 446:369-386 (2008)).

His-UBA1 = target: T2, His-UBA1 (Homo sapiens, UniProt P22314); test: Fluorescence microscopy of Ni-NTA agarose beads with His-UBA1; assay type: binding; conditions: FITC-labeled peptide 10 μM
T2 sequence (P22314 1-1058): T1 sequence (P22314 1-1058)
Protocol: Fluorescence Microscopy: His-tagged UBA1 (25 μg) was incubated with Ni-NTA agarose beads (100 μl) (Invitrogen™ R90110) in PBS for 30 min. Beads were then incubated for 30 min with FITC-labeled peptide (10 μM). Beads were plated in […] (10 μl/well) (Corning 384-well High Content Imaging Glass Bottom Microplate) and imaged with an Olympus wide-field epifluorescence microscope, a 63×LCPlanFL NA 0.7 objective, and a CoolSNAP DYNO camera.

His-p53 = His-p53 (Homo sapiens, UniProt P04637); test: Fluorescence microscopy of Ni-NTA agarose beads, untagged or with His-p53 control; assay type: binding; conditions: FITC-labeled peptide 10 μM
His-p53, sequence (P04637 whole entry): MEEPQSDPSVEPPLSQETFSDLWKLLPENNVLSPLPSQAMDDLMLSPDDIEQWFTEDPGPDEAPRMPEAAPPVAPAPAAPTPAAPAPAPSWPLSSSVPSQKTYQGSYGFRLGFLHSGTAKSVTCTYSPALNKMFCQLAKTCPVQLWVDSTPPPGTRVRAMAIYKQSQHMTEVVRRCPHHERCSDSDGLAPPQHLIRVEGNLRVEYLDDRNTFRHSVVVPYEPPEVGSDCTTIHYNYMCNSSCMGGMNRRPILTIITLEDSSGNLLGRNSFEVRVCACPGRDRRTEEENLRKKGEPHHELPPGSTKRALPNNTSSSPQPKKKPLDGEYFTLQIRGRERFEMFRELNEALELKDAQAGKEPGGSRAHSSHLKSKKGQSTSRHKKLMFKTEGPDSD

[3] = listed as FITC-labeled SAH-UBE2A-11

BPSSAX1RQLLRKX2LKEIQ [SEQ ID NO:50]
inhibition of E1-mediated ubiquitin transfer to E2 (conversion of E2 to E2~ubiquitin) ([1]; UbcH5b E2 enzyme, 45 minutes): best in this panel at inhibiting E1-mediated ubiquitin transfer to E2 | inhibition of E1-mediated thioester transfer to E2, dose response ([1]; range of peptide concentrations, UbcH5b E2 enzyme, 45 minutes, listed as SAH-Ubc15-11): inhibited E1-mediated thioester transfer to E2 in a dose-dependent manner; also recorded: dose-dependently inhibit E1-mediated thioester transfer to E2 | helicity / helical content [2]: 51%

FITC-SAH-UBE2A: FITC conjugated to SEQ ID NO: 132 ([Nle]STP[R8]RRRL[Nle]R[S5]FKRLQ; staple 5-12; not fully specified (C-terminus); also: FITC conjugate, site not settled)
binding of FITC-labeled peptide to Ni-NTA beads with His-UBA1 (His-UBA1): only bound to the beads in the presence of His-UBE1 | binding of FITC-labeled peptide to Ni-NTA beads with His-UBA1 (His-UBA1; [3]): binds specifically to Ni-NTA beads tagged with His-UBA1 | binding of FITC-labeled peptide to untagged beads or His-p53 beads (His-p53): did not bind nonspecifically to the beads (top row) or to His-p53 | binding of FITC-labeled peptide to untagged beads or His-p53 beads (His-p53; [3]): did not engage untagged beads or beads tagged with an unrelated protein (His-p53)

BPSSASRQLLRKQLKEIQZ ([Nle]PSSASRQLLRKQLKEIQK(Biotin)) [Ubc15-1, unmodified Ubc15 peptide, Z is biotinylated lysine]
helicity / helical content [2]: 19%

BSTPARRRLBRDFKRLQ ([Nle]STPARRRL[Nle]RDFKRLQ-NH2; not fully specified (N-terminus)) [UBE2A, unmodified (unstapled) UBE2A peptide, B is norleucine]
inhibition of E1-mediated thioester transfer to E2 by mutant / additional stapled peptides [1]: no inhibitory activity; also recorded: negligible inhibitory activity | helicity / helical content [2]: 21%

BX1LKRIHJX2LNDLARD ([Nle][R8]LKRIH[Dab](Acryloyl)[S5]LNDLARD; staple 2-9; not fully specified (N-terminus, C-terminus); printed as BX1LKRIHJX2LNDLARD) [SEQ ID NO:691, warhead-bearing stapled peptide, J acrylamide-bearing Dab at A8, staple A2 and A9]
inhibition of E1-mediated thioester transfer to E2 by warhead-bearing stapled peptides [1]: did not inhibit E1-mediated thioester transfer to E2

BSTPX1RRRLBRX2FJRLQ ([Nle]STP[R8]RRRL[Nle]R[S5]F[Dab](Acryloyl)RLQ; staple 5-12; not fully specified (N-terminus, C-terminus); printed as BSTPX1RRRLBRX2FJRLQ) [SEQ ID NO:752, warhead-bearing stapled peptide, J acrylamide-bearing Dab at A11, staple A2 and A9]
inhibition of E1-mediated thioester transfer to E2 by warhead-bearing stapled peptides [1]: inhibited E1-mediated thioester transfer to E2

BSTPX1RRRABRX2FKRLQ ([Nle]STP[R8]RRRA[Nle]R[S5]FKRLQ-NH2; staple 5-12; not fully specified (N-terminus); printed as BSTPX1RRRABRX2FKRLQ) [SEQ ID NO:819]
inhibition of E1-mediated thioester transfer to E2 by mutant / additional stapled peptides [1]: impair the inhibitory activity of SAH-UBE2A-11

BPSSASRQX1LRKQLKX2IQ [SEQ ID NO:53]
inhibition of E1-mediated ubiquitin transfer to E2 (conversion of E2 to E2~ubiquitin) ([1]; UbcH5b E2 enzyme, 45 minutes): inhibited conversion of E2 to E2˜ubiquitin by E1

BSTPX1RARAARX2FKRLQ (Ac-[Nle]STP[R8]RARAAR[S5]FKRLQ-NH2; staple 5-12) [SAH-UBE2A-AAA]
inhibition of E1-mediated thioester transfer to E2 by mutant / additional stapled peptides [1]: no inhibitory activity; also recorded: progressively impaired inhibitory activity as compared to the single point mutation peptide SAH-UBE2A-R7E; also recorded: negligible inhibitory activity

BPSSASRQLX1RKQLKEX2Q [SEQ ID NO:54]
inhibition of E1-mediated ubiquitin transfer to E2 (conversion of E2 to E2~ubiquitin) ([1]; UbcH5b E2 enzyme, 45 minutes): unable to inhibit E1-mediated ubiquitin transfer to E2

BSTPX1RERLBRX2FKRLQ (Ac-[Nle]STP[S5]RERL[Nle]R[R8]FKRLQ-NH2; staple 5-12) [SAH-UBE2A-11-R7E, point mutant negative control stapled peptide]
inhibition of E1-mediated thioester transfer to E2 by mutant / additional stapled peptides [1]: reduced inhibitory activity as compared to SAH-UBE2A | inhibition of E1-mediated thioester transfer to a variety of human E2 enzymes ([1]; panel of human E2 enzymes (UBE2A, UBE2B, UBE2C, UBE2D1-4 etc.)): diminished inhibitory capacity; also recorded: mitigated by a single point mutation (R7E)
